Experimental data: the RNAGym collection of RNA variant scans (doi:10.1073/pnas.2313332121)

B1: TPR t1 (parent)
chain: GACCAAUCUGCCCUCAGAGCUCGAGAACAUCUUCGGAUGCAGAGGAGGCAGGCUUCGGUGGCGCGAUAGCGCCAACGUCCUCAACCUCCAAUGCAUCCCACCACAUGAUGAUGCCUGAAGAGCCUUGGUUUUUUG

Variants of: B1
Assay: polymerase ribozyme fitness, log enrichment relative to wild type (log ratio); higher = more active; in vitro selection for triplet polymerase activity
In short: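 One round of in vitro selection, in triplicate, was applied to PCR-built, transcribed mutant libraries of each subunit of a heterodimeric triplet polymerase ribozyme. The steps were annealing with a biotinylated primer, partner subunit and triplets, incubation frozen at −7 °C, gel excision of extended constructs, streptavidin-bead capture and RT-PCR. Fitness is the logarithm, base 2, of genotype enrichment over wild-type enrichment from inverse-variance-weighted replicate averages of Illumina-sequenced inputs and outputs, keeping genotypes with ≥10 input reads and ≥1 read per output.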

Point of comparison: GACCAAUCUGCCCUCAGAGCUCGAGAACAUCUUCGGAUGCAGAGGAGGCAGGCUUCGGCGGCGCGAUAGCGCCAACGUCCUCAGCCUCCAAUGCAUCCCACCACAUGAUGAUGCCUGAAGAGCCUUGGUUUUUUG [U59C A84G], “polymerase ribozyme fitness (log ratio)” value -1.4. Against it:
- GACCAAUCUGCCCUCAGAGCUCGAGAACAUCUUCGGAUGCAGAGGAGGCAGGCUUCGGUGGCGCGAUAGCACCAACGUCCUCAACCUCCAAUGCAUCCCACCACAUGAUGAUGCCUGAAAAGCCUUGGUUUUUUG [G71A G120A] — higher, -0.000691
- GACCAAUCUGCCCUCAAAGCUCGAGAACAUCUUCGGAUGCAGAGGAGGCAGGCUUCGGUGGCGCGAUACCGCCAACGUCCUCAACCUCCAAUGCAUCCCACCACAUGAUGAAGCCUGAAGAGCCUUGGUUUUUUG [G17A G69C U112A] — lower, -4.29
- GACCAAUCUGCCCUCAGAGCUCGAGAACAUCUUCGGAUGCAGAGGAGGCAGGCUUCGGUGGCGCGAUAGCGGCAACGUCCUCAACCUCCAAUGCAUCCCACCACAUGAUGAUGCCUUAAGUGCCUUAGUUUUUUG [C72G G117U A121U G127A] — lower, -3.25
- GCCCAAUCUGCCCUCAGAGCUCGAGAACAUCUUCGGAUGCAGAGGAGGCAGGCUUCGGUGGCGCGAUAGCGCCAACGUCCUCAAUCUCCAAUGCAUCCCACCACAUGAUGAUGCCUGAAGAGCCUUGGUUUUUUG [A2C C85U] — lower, -3.37
- GACCAAUCUGCCCUCAGAGCUCGAGAACAUCUUCGGAUGCAGAGGAGGCAGGAUUCGGUGGCGCGAUAGCGCCAACGUCCUCAACCACCGAUGCAUGCCACCACAUGAUGAAGCCUGAAGAGCCUUGGUUUUUUG [C53A U87A A90G C97G U112A] — lower, -3.25
- GACCAAUCUGCCCUCAGAGCUCGAGAACAUCUUCGGAUGCAUAGAAGGCAGGCUUCGGUGGCGCGAUAGCGCCAACGUCCUCAACCUCCAAUGCAUCCCACCACAUGAUCAUGCCUGAAGAGCCUUGGUUUUUUG [G42U G45A G110C] — lower, -5.34
- GACCAAUCUGCUCUCAGAGCUCGAGAACAUCUUCGGAUGCAGAGGAGGCAGGCUUCGGUGGCACGAUAGCGCCAACGUCCUCAACCUCCAAUGCAUCCCACCACAGGAUGAUGCCUGAAGAGCCUUGGUUUUUUG [C12U G63A U106G] — lower, -3.38
- GACCAAUCUGCCCUCAGAGCUCGAGAACAUCUUCGGAUGCAGAGGAGGCAGGCUUCGGUGGCUCGAUAGCGCCAACGUCCUCAACCUCCAAUACAUCCCACCACAUGAUGAUGCCUGAAGAGCCUUGGUUUUUUG [G63U G93A] — within 0.2 log units, -1.31
- GACCAAUCUGCCCUCAGAGCUCGAGAACAUCUUCGGAUGCAGAGGAGGCAGGCUUCGGUGGCGCGAUAGCGCCAACGUCCUCAAUCUCCAAUGCAUCCCACCACAUGAUGAUGCCUGAAGAGCCUUGGUUUUUUU [C85U G135U] — lower, -1.91
- GACCAAUCUGCCCUCAGAGCUCGAGAACAUCUUCGGAUGCAGACGGGGCAGGCUUCGGUGGCGCGAUAGCGCCAACGUCCUCAACCUCCAAUGCAUCCCACCACAUGAUGAUGCCUGAAGAGCCUUGGUUUUUUG [G44C A46G] — higher, -0.686
- GACCAAUCUGCCCUCAGAGCUGGAGAACAUCUUCGGAUGCAGAGGAGGCAGGCUUCGGUGGCGCGAUAGCGCUAACGUCCUCAACCUCCAAUGCAUCCCACCACAUGAUGAUGCCUGAAGAGCCUUGGUUUUUUG [C22G C73U] — lower, -2.27
- GACCAAUCUGCCCUCAGAGCUCGAGAACAUCUUCGGAUGCAGAGGAGGCAGGCUUAGGUGCCGCGAUAGCGCCAACGUCCUCAACCUCCAAUGCAUCCCACCACAUGAUGAUGCCUGAAGAGCCUUGGUUUUUUG [C56A G61C] — lower, -5.03
- GACCAAUCUGCCCUCAGAGCUCGAGAACAUCUUCGGAUGCAGAGGAGGCAGGCUUCGGUGGCGCGAUAGCGCCAACGUCCUCAACAUCCAAUGCAUCCCACCACAUGAUGAUGCCUGAAUAGCCUUGGUUUUUUG [C86A G120U] — higher, -0.761
- GACCAAUCUGCCCUCAGAGCUCGAGAACAUCUUCGCAUGCAGAGGAGGCAGGCUUCGGUAGCGCGAUAGCGCCAACGUCCUCAACCUCCAAUGCAUCCCACCACAUGAUGAUGCCUGAAGAGCCUUGGUUUUUUG [G36C G60A] — higher, -0.627
- GACCAGUCUGCCCUCAGAGCUCGAGAACAUCUUCGGAUGCAGAGGAGGCAGGCUUCGGUGGCGCGAUAGCGCCAACGUCCUCAACCUCCAAUGCAUCUCACCACAUGAUGAUGCCUGAAGAGCCGUGGUUUUUUG [A6G C98U U125G] — lower, -3.71
- GACCAUUCUGCCUUCAGAGCUCGAGAACAUCUUCGGAUGCAGAGGAGGCAGGCUUCGGUGGUGCGAUAGCGCCAACGUCCUCAACCUCCAAUGCAUCCCACCACAUGAUGAUGCCUGAAGAGCCUUGGUUUAUUG [A6U C13U C62U U132A] — higher, -0.793
- GACCAAUCUGCCCUCAGAGCUCGAGAACAUCUUCGGAUGCAGAGGCGGCAGGCUUUGGUGGCACGAUAGCGCCAACGUCCUCAACCUCCAAUGCAUCCCACCACAUGAUGAUGGCUGAAGAGCCUUCGAUUUUUG [A46C C56U G63A C114G G127C U129A] — lower, -5.93
- GACCAAUCUGCCCUCAGAGCUCGAGAACAUCUUCGGAUGCAGAGGAGGUAGGCUUCGGUGGCGCGAUAGCGCCAACGUCCUCAACCUCCAAUGCAUCCCACCACAUGAUGAAGCCUGAAGAGCCUUGGUUUUUUG [C49U U112A] — higher, 0.631
- GACCAAUCUGCCCUCAGAGCUCGAGAACAUCUUCGGAUGCAGAGGAGGCAGGCUUCGGUGGCGCGAUAGCGCCAACGCCCUCAACAUCCAAUGCAUCCCACCACAUGAUGAUGCCUGAAGAGCCUUGGUUUUUUG [U78C C86A] — higher, -0.372
- GACCAAUCUGCCCUCAGAGCUCGAGAACAUCUUCGGAUGCAGAGGAGGCAGGCUACGGUGGCGAGAUAGCGCCAACGUCCUCAACCUCCAAUGCAUCCCACCACAUGAUGAUGCGUGAAGAGCCUUGAUUUUUUG [U55A C64A C115G G128A] — lower, -6.49
- GACCAAUCUGCCCUCAGAGCUCGAGAACAUCUUCGGAUGCCGAGGAGGCAGGCUUCGGUGGCGCGAUAGCUCCAACGUCCUCAACCUCCAAUGCAUCUCACCACAUGAUGAUGACUGAAGAGCCUUGGUUUUUUG [A41C G71U C98U C114A] — lower, -5.3
- GACCAAUCUGCCCUCAGAGCUCGAGAACAUGUUCGGAUGCAGAGGAGGCAGGCUUCGGUGGCGCGAUAGCGCCAACGUCAUCAACCUCCAAUGCAUCCCACCACGUGAUGAUACCUGAAGAGCCUUGGUUUUUUG [C31G C80A A105G G113A] — lower, -4.57
- GACCAAUCUGCCCUCAGAGCUCGAGAACAUCUUCGGAUGCAGAGGAGGCUGGCUUCGGUGGCGCGAUAGCGCCAACGUCCUCAACCUACAAUGCAUCCCACCACAUGAUAAUGCCUGAAGAGCCUUGGUUUUUUG [A50U C88A G110A] — lower, -3.66
- GACCAAUCUGCCCUCAGAGCUCGAGAACAUAUUCGGAUGCAGAGGAGGCAGGCUUCGGUGGCGCGAUAGCGCCAACGUCCUCAACCUCCAAUGCAUCUCACCACAUGAUGAUGCCUGAAGAGCCUUGGUUUUUUG [C31A C98U] — lower, -7.02
- GACCAAUCUGCCCUCUGAGCUCGAGAACAUCUUCGGAUGCAGAGGAGGCAGGCUUCGGUGGUGCGAUAGCGCCAACGUCCGCAACCUCCAAUGCAUCCCACCACAUGAUGAUGCCUGAAGUGCCUUGGUUUUUUG [A16U C62U U81G A121U] — lower, -2.2
- GACCAAUCUGCCCUCAGAGCUCGAGAACAUCUUGGGAUGCAGAGGAGGCAGGCUUCGGUGGCGCGAUAGCGUCAACGUCCUCAACCUCCAAUGCAUCCCACCACAUGAAGAUGCCUGAUGAGUCUUGGUUUUUUG [C34G C72U U109A A119U C123U] — lower, -8.4
- GACCAAUCUGCCCUCAGAGCUCGAGAACAUCUUCGGAUGCAUAGGAGGCAGGCUUCGGUGGCGCGAUAGCGCAAACGUCCUCAACCUCCAAUGCAUCCUACCACAUGAUGAUGCCUGAAGAGCCUUGGUUUUUUG [G42U C73A C99U] — lower, -6.29
- GACCAAUCUGCCCUCAGAGCACGAGAACAUCUUCGGAUGCAGAGGAGGCAGGCUUCGGUGGCGCGUUAGCGCCAACGUCCUCAACCUCCAAUGCAUCCCACCACAUGAUGAGGCCUGAAGAGCCUUGGUUUUUUG [U21A A66U U112G] — higher, -0.949
- GACCAAUCUGCCCUCAGAGCUCGAGAACAUCUUCGGAUGCAGAGGAGGCAGGCUUAGGUGGCGCGAUAGCGCCAACGUCCUCAACCUCCAAUGCAUCCCACCACAUAAUGAUGCCUGAAGAGCCUUGGUUUUUUG [C56A G107A] — lower, -3.75
- GACCAAUCUGCCUUCAGACCUCGAGAACAUCUUCGGAUGCAGAGGAGUCAGGCUUCGGUGGCGCGAUAGCGCCAACGUCCUCAACCUCCAAUGCAUCCCACCACAUGAUGAUGCCUGAAGAGCCUUGGUUUUUUG [C13U G19C G48U] — lower, -3.4
- GUCCCAUCUGCCCUCAGAGCUCGAGAACAUCUUCGGAUGCAGAGGAGGCAGGCUUCGGUGGCCCGAUAGCGCCAACGUCCUCAACCUCCAAUGCAUCCCACCACAUGAUGAUGCCUGAAGAGCCUUGGUUUUUUG [A2U A5C G63C] — lower, -3.31
- GACCUAUCUGCCCUCAGCGCUCGAGAACAUCUUCGGAUGCAGAGGAGGCAGGCUUCGGUGGCGCGAUAGCGCCAACGUCCUCAACCUCCAAUGCAUCCCACCACAUGAUGAUGCCUGAAGAGCCUUGGUUUUUUG [A5U A18C] — within 0.2 log units, -1.31
- GACCAAUCUGCCCUCAGAGCUCGAGAUCAUCUUCGGAUGCAGAGGAGGCAGGCUUCGGUGGCGCGAUAGCGCCAACGUCCUCAACCUCCAAUGCAUUCCACCACAUGAUGAUGCCUGAAGAGCCUUGGUCUUUUG [A27U C97U U130C] — lower, -3.37
- GACCAAUCUGCCCUCAGAGCUCGAGAACAUCUUCGGAUGCAGAGGAGGCAGGCUUAGGUGGCGCGAUAGCGCCAACGUCCUCAACCUCCAAUGCAUCCCACCACAUGAUGAUCCCUGAAGAGCCUUGGUUUUUUG [C56A G113C] — lower, -1.7
- GACCAAUGUGCCCUCAGAGCUCAAGAACAUCUUCGGAUGCAGAGGAGGCAGGCUUCGGUGUCGCGAUAGCGCCAACGUCCUCAACCUCCAAUGCAUCCCACCACAUGAAGAAGCCUGAAGAGCCUUGGUUUUUUG [C8G G23A G61U U109A U112A] — lower, -6.91
- GUCCAAUCUGCCCUCAGAGCUCGAGAACAUCUUCGGAUGCAGAGGAGGCAGGCUUCGGUGGCGCGAUAACGCCAACGUCCUCAACCUCCAAUGCAUCCCACCACAUGAUGAUGCCUGAAGAGCCUUGGUUUUUUG [A2U G69A] — lower, -4.39
- GACCAAUCUGCCCUCAGAGCUCGAGAACAUCUUCGGAUGCAGAGUAGGCAGGCUUCGGUGGCUCGAUAGCGCCAACGUCCUCAACCUCCAAUGCAUCCCACCACAUGAUGAUACCUGAAGAGCCUUGGUUUUUUG [G45U G63U G113A] — lower, -3.01
- GACCAAUCUGCCCUCAGAGCUCGAGAACAUCUUCGGAUGCAGAGGUGGCAGGCUUCGGUGGCGCGAUAGCCCCAACGACCUCAACAUCCAAUGCAUCCCACCACAUGAUGAUGCCUGAAGAGCCUUGGUUUUUUG [A46U G71C U78A C86A] — lower, -1.63
- GACCAAUAUGCCCUCAGAGCUCGAGAACAUCUUCGGAUGCAGAGGAGGCAGGCUUCGGUGGCGCGAUAGCGGCAACGUCCUCAACCUCCAAUGCAUCCCAGCACAUGAUGAUGCCUGAAGAGCCUUGGUUUUUUG [C8A C72G C101G] — lower, -2.08
- GACCAAUCUGACCUCAGAGCUCGAGAACAUCUUCGGAUGCAGAGGAGGCAGGCUUCGGUGGCGCGAUAGCGCCAACGUCCUCAACCUCCAAUGCAUCCCACCACAUGAUGAUCCCUGAAGAGCCUUGGUUUUUUG [C11A G113C] — lower, -2.93
- GACCAAUCUGCCCUCAGAGCUCGAGAACAUCUUCGGAUGCAGAGGAGGCAGGCUUCGGUGGCGCGCUAGCGCCCACGUCCUCAACCUCCAAUGCAUCCCACCACAUGAUGCUGCCUGAAGAGCCUUGGUUUUUUG [A66C A74C A111C] — lower, -2.24
